# Assay results as given in patent publication US6863888 (University of California, dated 2005).
# B1: epitope-tagged JNK1 (Flag epitope Asp-Tyr-Lys-Asp-Asp-Asp-Asp-Lys inserted between codons 1 and 2), expressed in COS cells (enzyme)
# chain: MDYKDDDDKSRSKRDNNFYSVEIGDSTFTVLKRYQNLKPIGSGAQGIVCAAYDAILERNVAIKKLSRPFQNQTHAKRAYRELVLMKCVNHKNIIGLLNVFTPQKSLEEFQDVYIVMELMDANLCQVIQMELDHERMSYLLYQMLCGIKHLHSAGIIHRDLKPSNIVVKSDCTLKILDFGLARTAGTSFMMTPYVVTRYYRAPEVILGMGYKENVDLWSVGCIMGEMVCHKILFPGRDYIDQWNKVIEQLGTPCPEFMKKLQPTVRTYVENRPKYAGYSFEKLFPDVLFPADSEHNKLKASQARDLLSKMLVIDASKRISVDEALQHPYINVWYDPSEAEAPPPKIPDKQLDEREHTIEEWKELIYKEVMDLEERTKNGVIRGQPSPLAQVQQ
# notes: Tag inserted between codons 1 and 2 of the JNK1 cDNA in pCMV5; also called immunopurified JNK1
# B2: GST-cJun(1-79), GST fused to c-Jun AA 1-79 (other)
# chain: MTAKMETTFYDDALNASFLPSESGPYGYSNPKILKQSMTLNLADPVGSLKPHLRAKNSDLLTSPDVGLLKLASPELERL
# notes: also called GST fusion protein containing AA 1-79 of c-Jun; not shown: glutathione-S-transferase (GST) carrier encoded by pGEX3X (Pharmacia)
# B3: GSTcJun(33-223), GST fused to c-Jun AA 33-223 (other)
# chain: ILKQSMTLNLADPVGSLKPHLRAKNSDLLTSPDVGLLKLASPELERLIIQSSNGHITTTPTPTQFLCPKNVTDEQEGFAEGFVRALAELHSQNTLPSVTSAAQPVNGAGMVAPAVASVAGGSGSGGFSASLHSEPPVYANLSNFNPGALSSGGGAPSYGAAGLAFPAQPQQQQQPPHHLPQQMPVQHPRLQ
# notes: also called removal of AA 1-32; not shown: GST carrier (pGEX3X, Pharmacia) and the vector junction residues
# B4: GST-cJun(43-223), GST fused to c-Jun AA 43-223 (other)
# chain: ADPVGSLKPHLRAKNSDLLTSPDVGLLKLASPELERLIIQSSNGHITTTPTPTQFLCPKNVTDEQEGFAEGFVRALAELHSQNTLPSVTSAAQPVNGAGMVAPAVASVAGGSGSGGFSASLHSEPPVYANLSNFNPGALSSGGGAPSYGAAGLAFPAQPQQQQQPPHHLPQQMPVQHPRLQ
# notes: also called removal of AA 1-42; deletion of residues 1-42; not shown: GST carrier (pGEX3X, Pharmacia) and the vector junction residues
# B5: c-Jun N-terminal protein kinase (JNK), 46 kD form, endogenous kinase from cell extracts (enzyme)
# chain: MSRSKRDNNFYSVEIGDSTFTVLKRYQNLKPIGSGAQGIVCAAYDAILERNVAIKKLSRPFQNQTHAKRAYRELVLMKCVNHKNIIGLLNVFTPQKSLEEFQDVYIVMELMDANLCQVIQMELDHERMSYLLYQMLCGIKHLHSAGIIHRDLKPSNIVVKSDCTLKILDFGLARTAGTSFMMTPYVVTRYYRAPEVILGMGYKENVDLWSVGCIMGEMVCHKILFPGRDYIDQWNKVIEQLGTPCPEFMKKLQPTVRTYVENRPKYAGYSFEKLFPDVLFPADSEHNKLKASQARDLLSKMLVIDASKRISVDEALQHPYINVWYDPSEAEAPPPKIPDKQLDEREHTIEEWKELIYKEVMDLEERTKNGVIRGQPSPLAQVQQ
# Experiments:
# [1] = biological target: T1, GSTcJun(wt), glutathione-S-transferase fused to c-Jun AA 1-223 (human, UniProt P08515 1-218 = GST); assay: immunopurified JNK1 on GST-Jun fusion proteins bound to GSH-agarose, solid-phase kinase assay
# T1 construct: Expressed in E. coli, held on GSH-agarose beads; also called human GSTcJun
# Method: (§1) Clarified cell extracts were incubated with GST fusion proteins immobilized on GSH-agarose beads. […] The reaction was terminated after 10 mins at 30° C. and the products were resolved by SDS-PAGE. The incorporation of [^32P]phosphate was visualized by autoradiography and quantitated with a phosphorimager and ImageQuant software (Molecular Dynamics Inc., Sunnyvale, Calif.).
# (§2) Mock-transfected COS cells were used as a control. After 1 hour, the cells were lysed and subjected to immunoprecipitation with the M2 monoclonal antibody. […] The phosphorylated proteins were resolved by SDS-PAGE and detected by autoradiography.
# [2] = biological target: B1; assay: COS cell lysates on GST-cJun(1-79) immobilized on GSH-agarose beads, Western blot with M2 antibody
# Method: COS cell extracts (250 µg) were incubated with 20 µg GST or GST-cJun immobilized on 10 µl GSH-agarose at 4° C. for 5 hours.
# Mock-transfected COS cells were used in control experiments (lanes 1 & 2). The cells were either untreated (lanes 1 & 3) or irradiated with 40 J/m^2 UV-C (lanes 2, 4, & 5). Cell lysates were prepared and incubated with GST-cJun(1-79) (lanes 1–4) or GST (lane 5) immobilized on GSH-agarose beads.
# [3] = biological target: B1; assay: immunopurified JNK1 on GST-Jun fusion proteins bound to GSH-agarose, solid-phase kinase assay
# Method: as §1, §2
# [4] = biological target: B5; assay: GSTcJun deletion mutants on GSH-agarose, UV-irradiated HeLa extract; solid-phase kinase assay and eluted-kinase assay
# [5] = biological target: GAL4-cJun(1-223), GAL4 DNA binding domain fused to c-Jun AA 1-223 (yeast; human, UniProt P04386 1-147); assay: cell-based or functional assay
binder,measurement,setting,value
B1,binding result,[1],binds
B2,binding result,[2],binds
B3,binding result,[3],binds
B4,binding result,[3],no binding
same,binding result,[4],no binding
B5,"Ha-Ras responsiveness, CAT activity of 5xGAL4-Elb-CAT reporter in F9 cells",[5],19 fold induction
same,"UV responsiveness, CAT activity of 5xGAL4-Elb-CAT reporter in F9 cells",[5],7.5 fold
